The text below walks through data of patent US20030236190A1 (published 2003).

No end group written: not given here.

Assay [1] deals with T1, soluble HIR ectodomain (sIR) (human, UniProt P06213-2 28-944, limits assumed).
T1 construct: extracellular domain
Put plainly: FP competition vs FITC-RP9, sIR. From the text: Fluorescence polarization assays (FP) were used for peptide competition studies.

In assay [2] the target is T2, soluble human insulin receptor-immunoglobulin heavy chain chimera (sIR-Fc) (human, UniProt P06213 28-956, limits assumed, Eu3+ label (LANCE) in the TR-FRET assays).
T2 construct: extracellular domain; construct of Bass et al., 1996; also called HIR-immunoglobulin heavy chain chimera; not shown: immunoglobulin heavy chain constant domains
In words: TR-FRET competition vs b-S175, sIR-Fc. On the procedure: (§1) The TR-FRET assays were performed in a 384-well white microplate with a final volume of 30 μl.

Assay [3] concerns the target T2, soluble human insulin …. In words: FP competition vs FITC-RP9, sIR-Fc.
Assay [4] concerns the target T2, soluble human insulin …. In words: TR-FRET competition vs b-RP9, sIR-Fc. From the text:
Time-resolved fluorescence resonance energy transfer assays (TR-FRET) were used for peptide competition studies.
This was used to determine IC₅₀ values.
A general note: TR-FRET usually uses a lanthanide donor and a delayed reading to cut background.

The target of assay [5] is T3, human insulin receptor (HIR) (human, UniProt P06213 28-1382, limits assumed). In words: RRA, 125I-insulin competition, HIR.
Assay [6] addresses T4, human insulin receptor (HIR), purified from transfected cells after solubilization with Triton X-100 (human, UniProt P06213 28-1382, limits assumed).
T4 construct: also called WGA-purified recombinant human insulin receptor
In words: 125I-insulin competition on HIR.

The target of assay [7] is human IGF-1 receptor (HIGF-1R) (human, UniProt P08069 31-1367). Put plainly: 125I-IGF-1 competition, solubilised HIGF-1R.
The target in assay [8] is insulin receptor (IR) on mouse free fat cells (mouse, UniProt P15208 28-1372). In words: cell-based or functional assay.
Sequence of insulin receptor (IR) on mouse free fat cells (P15208 28-1372): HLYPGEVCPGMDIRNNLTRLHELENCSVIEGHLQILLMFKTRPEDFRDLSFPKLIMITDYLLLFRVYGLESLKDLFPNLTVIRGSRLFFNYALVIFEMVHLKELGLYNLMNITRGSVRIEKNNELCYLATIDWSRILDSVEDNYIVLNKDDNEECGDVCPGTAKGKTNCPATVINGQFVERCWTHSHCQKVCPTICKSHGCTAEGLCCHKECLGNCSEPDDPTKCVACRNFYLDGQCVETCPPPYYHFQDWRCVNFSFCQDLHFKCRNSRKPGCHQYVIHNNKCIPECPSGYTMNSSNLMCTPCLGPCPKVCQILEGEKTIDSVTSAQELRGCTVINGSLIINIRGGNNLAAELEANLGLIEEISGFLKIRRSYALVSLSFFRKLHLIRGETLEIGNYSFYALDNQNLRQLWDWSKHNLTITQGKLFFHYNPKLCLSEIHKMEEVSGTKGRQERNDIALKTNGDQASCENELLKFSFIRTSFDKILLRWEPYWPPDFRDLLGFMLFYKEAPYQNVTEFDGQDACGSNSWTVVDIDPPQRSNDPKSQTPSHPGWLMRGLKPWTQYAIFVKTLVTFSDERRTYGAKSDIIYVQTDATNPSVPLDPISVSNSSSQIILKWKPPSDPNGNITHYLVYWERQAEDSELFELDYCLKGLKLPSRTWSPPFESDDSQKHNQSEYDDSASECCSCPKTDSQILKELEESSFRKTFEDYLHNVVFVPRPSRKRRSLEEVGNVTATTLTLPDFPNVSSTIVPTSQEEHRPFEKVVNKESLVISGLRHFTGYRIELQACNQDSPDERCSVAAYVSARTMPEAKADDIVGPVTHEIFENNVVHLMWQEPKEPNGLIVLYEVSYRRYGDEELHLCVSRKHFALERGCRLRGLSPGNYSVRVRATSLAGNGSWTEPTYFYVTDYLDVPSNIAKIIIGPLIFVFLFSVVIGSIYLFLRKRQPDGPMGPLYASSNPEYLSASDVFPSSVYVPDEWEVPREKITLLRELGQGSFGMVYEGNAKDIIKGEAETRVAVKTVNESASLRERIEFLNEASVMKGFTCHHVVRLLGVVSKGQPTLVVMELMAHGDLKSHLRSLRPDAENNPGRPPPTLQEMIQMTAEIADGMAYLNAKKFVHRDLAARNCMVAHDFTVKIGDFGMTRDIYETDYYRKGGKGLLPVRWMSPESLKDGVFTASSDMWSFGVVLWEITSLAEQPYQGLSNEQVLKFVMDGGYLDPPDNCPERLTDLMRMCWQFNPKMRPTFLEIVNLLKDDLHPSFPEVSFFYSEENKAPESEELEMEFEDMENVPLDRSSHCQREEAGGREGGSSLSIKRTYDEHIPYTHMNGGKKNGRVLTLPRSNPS
For assay [9], the target named is T3, human insulin receptor (HIR). Put plainly: 125I-insulin competition, solubilised HIR.
For assay [10], the target named is T2, soluble human insulin …. In words: TR-FRET competition vs b-S175, sIR-Fc (column as given). On the procedure: as §1

B1: H2C (peptide)
peptide: FHENFYDWFVQRVSKK
notes: also called D117
What is called IC50 is the concentration that inhibits the measured activity by half. With B1, the IC50 in [1] was determined as 37 nM; in assay [2], 410 nM; in assay [3] it was 50 nM; in assay [4], 1630 nM; in [5] it was 700 nM.

B2: RP9 (peptide)
peptide: GSLDESFYDWFERQLGKK
modifications: also: biotin (b-RP9) or fluorescein (FITC-RP9) label where used, site not given here
notes: also called S371; b-RP9
As to B2, the IC50 in [1] was determined as 0.03 nM; in assay [2], 6 nM; in [3], 10 nM; in assay [4] it was 42 nM; in assay [5], 44 nM.

B3: S374: 17-(Ald-GSLDESFYDWFERQLGKK)2 (peptide)
peptide: XGSLDESFYDWFERQLGKK
modifications: N-terminal Ald (aldehyde from periodate oxidation of a serine); the two chains joined N-N through chemical linker 17 of Table 3
notes: also called synthetic RP9 homodimer S374
B3: in assay [6], the binding result is “binds”.

B4: 538 (peptide)
peptide: MADYKDDDDKGSLDESFYDWFERQLGKKGGSGGSGGSGGSWLDQEWAWVQCEVYGRGCPSAAAGAPVPYPDPLEPRPG
notes: recombinant dimer with tags at both ends; also called RP9-12aa-D8
What is called Kd is the free concentration of one partner at which half of the binding sites on the other are occupied at equilibrium, for simple one-to-one binding. High values mean lower affinity, low ones higher affinity. Turning to B4, the results for the Kd in assay [7] and in [9] were 710 nM and 0.08 nM, respectively. For the same molecule, the “FFC Pot.” value in assay [8] is 10 nM.

B5: E8 (D120) (peptide)
peptide: GGTVWPGYEWLRNA
With B5, the IC50 turned out to be 207 nM in assay [3], 2200 nM in assay [5] and 755 nM in assay [10].
